Source: patent US20230250148A1 (published 2023)
Positions count from the first letter of the chain named. Read-outs that look alike come from different tables or passages of the source. Values belong to the binder of their own block, whether it stands above or below them.

Tests used:
[1] = target: T1, human insulin receptor (IR) on human IM-9 cells (human, UniProt P06213 28-1382); assay: competition with biotinylated RHI on IM-9 cells, flow cytometry, 4 C
T1 construct: whole, on cells; also called human IR
Description: (§1) 40 µL of an IM-9 cell suspension (8×10⁶ cells/mL) was then added to each well by multichannel pipette, mixed again gently and incubated on ice for 30 min to allow competitive binding on the IR on IM-9 cells. Cells were then washed twice with 275µL of ice-cold FACS wash buffer (HBSS/2mM EDTA/0.1% Na-azide + 0.5% horse serum) by centrifuging the V-bottom plate at 3000 rpm for 3 min and aspirating the supernatant. Cells were then resuspended in 40µL of FACS staining medium containing 1:100 diluted Streptavidin-PE (Life Technologies) for 20 min on ice. Cells were then washed once with 275 µL of ice-cold FACS buffer and finally fixed with 3% paraformaldehyde for 10 min at room temp. Cells were then washed once with 275 µL of ice-cold FACS buffer and resuspended in 250µl of FACS buffer for analysis.
The two insulin-Fc fusion proteins were manufactured in HEK293 cells according to Example 1 and purified using a Protein A column according to Example 4. Their structures were confirmed according to Example 6 by non-reducing and reducing CE-SDS, and the sequences were further identified by LC-MS with glycan removal according to Example 8. Their %homodimer content was measured by size-exclusion chromatography according to Example 10, and their insulin receptor binding affinities were measured according to Example 12.

[2] = target: T1, human insulin receptor (IR) on human …; assay: as above; remark: listed apart in the source
Description: as §1
In vitro insulin receptor binding for the insulin-Fc fusion proteins of SEQ ID NO: 36 and SEQ ID NO: 38 was tested according to the procedure of Example 12.

[3] = target: T2, biotinylated recombinant human Fc(gamma)RI (human, UniProt P12314 16-288, biotinylated, site not stated); assay: ELISA, fusion protein coated, biotinylated rhFc(gamma)RI in solution
T2 construct: Bought reagent; construct not described; also called rhFc(gamma)RI; Fc(gamma) receptor I
Description: (§2) The binding of insulin-Fc fusion proteins to the Fc(gamma)RI at pH 7.4 is conducted using an ELISA assay as follows using human Fc(gamma)RI (i.e., rhFc(gamma)RI). Insulin-Fc fusion proteins are diluted to 10 µg/mL in sodium bicarbonate buffer at pH 9.6 and coated on Maxisorp (Nunc) microtiter plates overnight at 4° C., after which the microplate strips are washed 5 times with PBST (PBS/0.05% Tween-20) buffer and blocked with Superblock blocking reagent (ThermoFisher). Serial dilutions of biotinylated rhFc(gamma)RI (recombinant human Fc(gamma)RI; R&D Systems) are prepared in PBST/10% Superblock buffer from 3000 ng/mL to 4.1 ng/mL and loaded at 100 µL/well onto the microplate strips coated with insulin-Fc fusion protein. The microtiter plate is incubated for 1 hour at room temperature after which time the microplate strips are washed 5 times with PBST and then loaded with 100 µL/well of streptavidin-HRP diluted 1:10000 in PBST/10% Superblock buffer. After incubating for 45 min, the microplate strips are washed again 5 times with PBST. TMB is added to reveal the bound Fc(gamma)RI proteins and is stopped with ELISA stop reagent (Boston Bioproducts). The plate is read in an ELISA plate reader at 450 nm, and the OD450 values (proportional to the binding of rhFc(gamma)RI to insulin-Fc protein) are plotted against log concentrations of rhFc(gamma)RI added to each well to generate binding curves using GraphPad Prism software. For groupings of compounds with somewhat similar curves, the OD450 at one of the higher concentrations, for instance at rhFc(gamma)RI concentrations of 3000 ng/mL, can be used to identify differences between coated insulin-Fc fusion protein compounds. […]

[4] = target: T2, biotinylated recombinant human …; assay: ELISA, fusion protein coated, biotinylated rhFc(gamma)RI at 3000 ng/mL
Description: as §2
Finally, select compounds were tested for their likelihood to interact with the immune system by measuring their Fc(gamma) receptor binding activity according to the procedure of Example 15.

[5] = target: T2, biotinylated recombinant human …; assay: ELISA, fusion protein coated, biotinylated rhFc(gamma)RI in solution; remark: listed apart in the source

T1 sequence (P06213 28-1382): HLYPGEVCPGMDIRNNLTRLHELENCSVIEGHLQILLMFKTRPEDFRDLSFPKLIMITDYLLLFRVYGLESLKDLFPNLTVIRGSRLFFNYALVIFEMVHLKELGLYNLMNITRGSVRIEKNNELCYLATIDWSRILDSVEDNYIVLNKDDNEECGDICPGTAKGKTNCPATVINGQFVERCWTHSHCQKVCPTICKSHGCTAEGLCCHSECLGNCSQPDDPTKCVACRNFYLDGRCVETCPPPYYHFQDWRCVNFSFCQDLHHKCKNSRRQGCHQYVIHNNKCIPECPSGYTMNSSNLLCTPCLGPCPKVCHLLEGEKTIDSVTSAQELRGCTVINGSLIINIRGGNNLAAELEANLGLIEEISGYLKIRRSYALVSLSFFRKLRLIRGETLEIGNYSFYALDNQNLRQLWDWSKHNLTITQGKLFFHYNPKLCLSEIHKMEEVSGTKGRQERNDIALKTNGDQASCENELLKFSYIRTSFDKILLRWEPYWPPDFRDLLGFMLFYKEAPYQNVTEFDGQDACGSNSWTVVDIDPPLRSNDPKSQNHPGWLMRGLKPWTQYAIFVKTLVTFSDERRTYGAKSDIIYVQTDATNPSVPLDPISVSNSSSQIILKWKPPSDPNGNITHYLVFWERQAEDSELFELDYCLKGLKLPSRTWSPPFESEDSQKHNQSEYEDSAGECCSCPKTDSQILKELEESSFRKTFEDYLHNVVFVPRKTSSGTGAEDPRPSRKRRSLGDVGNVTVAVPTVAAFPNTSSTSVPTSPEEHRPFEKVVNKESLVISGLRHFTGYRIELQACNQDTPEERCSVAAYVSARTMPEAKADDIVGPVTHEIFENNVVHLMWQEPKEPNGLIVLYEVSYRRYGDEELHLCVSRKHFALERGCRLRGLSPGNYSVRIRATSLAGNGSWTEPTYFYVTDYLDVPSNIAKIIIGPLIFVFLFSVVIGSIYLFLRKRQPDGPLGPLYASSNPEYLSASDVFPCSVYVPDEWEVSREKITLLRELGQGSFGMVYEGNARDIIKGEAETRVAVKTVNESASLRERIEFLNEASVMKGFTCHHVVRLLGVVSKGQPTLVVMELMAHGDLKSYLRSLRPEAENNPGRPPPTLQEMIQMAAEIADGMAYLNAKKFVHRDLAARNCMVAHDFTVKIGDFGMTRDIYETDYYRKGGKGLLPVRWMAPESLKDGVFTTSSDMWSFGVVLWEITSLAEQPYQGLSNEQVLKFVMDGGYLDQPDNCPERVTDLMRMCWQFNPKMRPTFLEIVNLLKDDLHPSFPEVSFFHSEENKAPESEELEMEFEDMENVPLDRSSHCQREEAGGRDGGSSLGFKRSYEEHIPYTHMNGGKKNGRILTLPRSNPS
T2 sequence (P12314 16-288 limits assumed): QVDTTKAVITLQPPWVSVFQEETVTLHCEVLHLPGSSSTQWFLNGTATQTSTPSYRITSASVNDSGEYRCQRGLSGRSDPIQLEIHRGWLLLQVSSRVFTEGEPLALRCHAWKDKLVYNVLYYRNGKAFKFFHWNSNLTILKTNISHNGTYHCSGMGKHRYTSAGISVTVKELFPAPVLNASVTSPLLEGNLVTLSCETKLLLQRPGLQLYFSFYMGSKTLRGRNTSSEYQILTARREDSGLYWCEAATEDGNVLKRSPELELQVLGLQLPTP

IC50 [1]: > 5000 nM
B1: insulin-Fc fusion protein of SEQ ID NO: 48 (Fc fusion)
chain: FVNQHLCGSHLVEALALVCGERGFFYTDPTGGGPRRGIVEQCCTSICSLYQLENYCGGGGAGGGGDCPKCPAPEMLGGPSVFIFPPKPKDTLLIARTPEVTCVVVDLDPEDPEVQISWFVDGKQMQTAKTQPREEQFSGTYRVVSVLPIGHQDWLKGKQFTCKVNNKALPSPIERTISKARGQAHQPSVYVLPPSREELSKNTVSLTCLIKDFFPPDIDVEWQSNGQQEPESKYRTTPPQLDEDGSYFLYSKLSVDKSRWQRGDTFICAVMHEALHNHYTQESLSHSPG

IC50 [2]: 28 nM | OD450nm [3]: 0.386 | OD450nm minus assay background [3]: 0.323 | ratio to SEQ ID NO: 36 [3]: 1 | OD450nm [4]: 0.428 | OD450nm minus assay background [4]: 0.371 | ratio to SEQ ID NO: 36 [4]: 1
B2: insulin-Fc fusion protein of SEQ ID NO: 36 (Fc fusion)
chain: FVNQHLCGSDLVEALALVCGERGFFYTDPTGGGPRRGIVEQCCHSICSLYQLENYCNGGGGAGGGGDCPKCPAPEMLGGPSVFIFPPKPKDTLLIARTPEVTCVVVDLDPEDPEVQISWFVDGKQMQTAKTQPREEQFNGTYRVVSVLPIGHQDWLKGKQFTCKVNNKALPSPIERTISKARGQAHQPSVYVLPPSREELSKNTVSLTCLIKDFFPPDIDVEWQSNGQQEPESKYRTTPPQLDEDGSYFLYSKLSVDKSRWQRGDTFICAVMHEALHNHYTQESLSHSPG
modifications: native N-glycosylation site cNg-NB139
notes: HEK293 homodimer

fold Fc(gamma) receptor binding activity against SEQ ID NO: 40 and SEQ ID NO: 42 [5]: ~2 fold | OD450nm [3]: 0.204 | OD450nm minus assay background [3]: 0.141 | ratio to SEQ ID NO: 36 [3]: 0.44
B3: insulin-Fc fusion protein of SEQ ID NO: 41 (Fc fusion)
chain: B2 chain with N139D
notes: non-glycosylated

IC50 [1]: 1280 nM
B4: insulin-Fc fusion protein of SEQ ID NO: 53 (Fc fusion)
chain: FVNQHLCGSHLVEALALVCGERGFFYTDPTGGGPRRGIVEQCCTSICSLYQLENYCGGGGGQGGGGQGGGGQGGGGGDCPKCPAPEMLGGPSVFIFPPKPKDTLLIARTPEVTCVVVDLDPEDPEVQISWFVDGKQMQTAKTQPREEQFSGTYRVVSVLPIGHQDWLKGKQFTCKVNNKALPSPIERTISKARGQAHQPSVYVLPPSREELSKNTVSLTCLIKDFFPPDIDVEWQSNGQQEPESKYRTTPPQLDEDGSYFLYSKLSVDKSRWQRGDTFICAVMHEALHNHYTQESLSHSPG

IC50 [2]: 2730 nM
B5: insulin-Fc fusion protein of SEQ ID NO: 31 (Fc fusion)
chain: FVNQHLCGSDLVEALALVCGERGFFYTDPTGGGPRRGIVEQCCHSICSLYQLENYCNGGGGAGGGGRCTDTPPCPVPEPLGGPSVLIFPPKPKDILRITRTPEVTCVVLDLGREDPEVQISWFVDGKEVHTAKTQSREQQFNGTYRVVSVLPIEHQDWLTGKEFKCRVNHIDLPSPIERTISKARGRAHKPSVYVLPPSPKELSSSDTVSITCLIKDFYPPDIDVEWQSNGQQEPERKHRMTPPQLDEDGSYFLYSKLSVDKSRWQQGDPFTCAVMHETLQNHYTDLSLSHSPG
notes: HEK293; only 24% homodimer
